Results published in US20250027068.

B1: PRT-541 (protein)
chain: MANQEIRYSKNENPNVTIKWVHGIGEPTQAEKEKIEFWWYETTTTKFFNNRKVDHLGDGNQCWAKTDSNMLHWWFVQNEENINQYIAKKNITGKINFNGEQMFDVKEGIDDNQEKEKSYIANTFRTKKAHNLSTKHKGDYIINGLSWYLYGLNNFKIAHGPTPVKKKPKFYGPALFKDVFSRGDGNTPIIVETDFKEYTKKEFEDTLSAALDSKKAIGINIYGSNVDYQHAITLWGAAFDEEENIIAIYVVDNNFKFENRIFPYGIWYQKEGRPYLFNYEINSFVKNRYVGEVTTLDKGEAQWQETNLEHHHHHH
B2: PRT-246 (protein)
chain: MVTSVWTKGVTPPANFTQGEDVFHAPYVANQGWYDITKLFNGKDDLLCGAATAGNMLHWWFDQNKDQIKRYLEEHPEKQKINFNGEQMFDVKEAIDTKNHQLDSKLFDYFKEKAFPYLSTKHLGVFPDHVIDMFINGYRLSLTNHGPTPVKEGSKDPRGGIFDAVFTRGDQSKLLTSRHDFKEKNLKEISDLIKKELTEGKALGLSHTYANVRINHVINLWGADFDSNGNLKAIYVTDSDSNPSIGMKKYFVGVNSSGKVAISAKEIKEDNIGAQVLGLFTLSTGQDSWNQTN
B3: PRT-247 (protein)
chain: MVTSVWTKGVTPPANFTQGEDVFHAPYVANQGWYDITKLFNGKDDLLCGAATAGNMLHWWFDQNKDQIKRYLEEHPEKQKINFNGEQMFDVKEAIDTKNHQLDSKLFEYFLEKAFPYLSTKHLGVFPDHVIDMFINGYRLSLTNHGPTPVKEGSKDPRGGIFDAVFTRGDQSKLLTSRHDFKEKNLKEISDLIKKELTEGKALGLSHTYANVRINHVINLWGADFDSNGNLKAIAVTDSDSNASIGMKKYFVGVNSSGKVAISAKEIKEDNIGAQVLGLFTLSTGQDSWNQTN
B4: PRT-538 (protein)
chain: MANQEIRYSSDSEWANKKVWVYGITPPEEGAWKYSTYYLPWKKEYGWYDCNKRNPTADGMMCWAATASNLLHWWIAQNKEYIDLYGDKYKGPDKINFNGEQMFDVKEYIDPLDKPQESDIFQCFIDKSFADLSTKHEAGYGDEGINWFIHGIIPSSPAHGPTPVKLRKPYNPAGYFKDVFPRGDGVKLLSNNGDFKELGKERFNETIKDALKNKKGIGLSIGPVNVRSGHVVTMWGAEFDENGDVSYIYIADNNDRWGVGCIRYQIVYEEGGTYTCYKTEIINEDRPIPINRLVTLELGEEYWKQTNLEHHHHHH
B5: PRT-575 (protein)
chain: MANQEIRYSEETPKTITSVWTKGVTPPTDFIYNEDVLHAPYIANQGWYDITKTFNGKDDLLCGAATAGNMLHWWFDQNKEQIERYLKKHPEKQKINFNGEQMFDVKEAIDTKDSQTNSKLFEYFKDKAFPYLSTKHLGVFPDHVIDMFINGYRLSLTNHGPTPVKEQTKDPRGGIFDAVFTRGDQSKLLTSRHDFKEKTLKEISDLIKQELTEGKALGLSHTYANVRINHVINLWGADFDAEGNLEAIYVTDSDSNASIGMKKYYVGVNSAGKVAISAKEIEGDNIGAQVLGLFTLSTGKDIWEQTNLEHHHHHH
B6: PRT-556 (protein)
chain: MANQEIRYSKAKPKVITSVWTKGVTPPTQFTYNEDVFHAPYLPNQGWYDITKTFNGKDDLLCGAATAGNMLHWWFDQNKEQIERYLKEHPEKQKINFNGEQMFDVKEAIDTKDSQTNSKLFNYFKDKAFPYLSTKHLGVFPDHVIDMFINGYRLSLTNHGPTPVKEQNKDPRGGIFDDVFTRGDQSKLLTSRHDFKEKTLKEISDLIKQELKEGKALGLSHTYANVRINHVINLWGADFDAEGNLVAIYVTDSDSNASIGMKKYYVGVNSAGKVAISAKEIEDDNIGAQVLGLFTLSTGKDIWEKTNLEHHHHHH
B7: PRT-567 (protein)
chain: MANQEIRYSEETPSTITSVWTKGVTPPTDFIQNEDVLHAPYIANQGWYDITKTFNGKDDLLCGAATAGNMLHWWFDQNKEQIENYLKKHPEKQKINFNGEQMFDVKEAIDTKDSQTDSALFEYFKDKAFPYLSTKHLGVFPDHVIDMFINGYRLSLTNHGPTPVKRGTKDPRGGIFDAVFTRGDQSKLLTSRHDFKEKTLNEISDLIKQELTEGKALGLSHTYANVRINHVINLWGADFNAEGNLEAIYVTDSDSNASIGMKKYYVGVNSAGKVAISAKEIEGDNIGAQVLGLFTLSTGQDIWNQTNLEHHHHHH
B8: PRT-573 (protein)
chain: MANQEIRYSEETPSTITSVWTKGVTPPTQFIQNEDVLHAPYIANQGWYDITKTFNGKDDLLCGAATAGNMLHWWFDQNKEQIENYLKKHPEKQKINFNGEQMFDVKEAIDTKDSQTDSALFSYFKDKAFPYLSTKHLGVFPDHVIDMFINGYRLSLTNHGPTPVKRQTKDPRGGIFDAVFTRGDQSKLLTSRHDFKEKTLNEISQLIKQELTEGKALGLSHTYANVRINHVINLWGADFNAEGNLEAIYVTDSDSNASIGMKKYYVGVNSAGKVAISAKEIEGDNIGAQVLGLFTLSTGQDIWQQTNLEHHHHHH
B9: PRT-270 (protein)
chain: MVTSVWTKGVTPPTDFIYGEDVLHAPYKAGQGWYDITKLFNGKDDLLCGAATAGNMLHWWFDQNKEQIENYLKKHPEKQKINFNGEQMFDVKEAIDTKDSQLDSKLFEYFLEKAFPNLSTKHLGVFPDHVIDMFINGYRLSLLNHGPTPVKRGSKDPRGGIFDAVFTRGDQSKLLTNRHDLKNKTLKEISDLIKQELTEGKALGISHTYANGRINHVINLWGADFDAEGNLEAIAVTDSDSNASIGMKKYFVGVNSSGKVAISAKEIEEDNIGAQVLGLFTLSTGQDIWNQTN
B10: PRT-554 (protein)
chain: MANQEIRYSEETPKTITSVWTKGVTPPTDFIKNEDVFHAPYVANQGWYDITKTFNGKDDLLCGAATAGNMLHWWFDQNKEEIENYLKKHPEKQKINFNGEQMFDVKEAIDTKDSQTDSALFNYFKDKAFPYLSTKHLGVFPDHVIDMFINGYRLSLTNHGPTPVKDGTKDPRGGIFDAVFTRGDQTKLLTARHDFKEKTLNEISDLIKQELTEGKALGLSHTYANVRINHVINLWGADFDSEGNLEAIYVTDSDSNASIGMKKYYVGVNAAGKVAISAKEIEDDNIGAQVLGLFTLSTGQDIWEQTNLEHHHHHH
B11: PRT-555 (protein)
chain: MANQEIRYSEETPKTITSVWTKGVTPPTDFIKNEDVLHAPYVANQGWYDITKTFNGKDDLLCGAATAGNMLHWWFDQNKEEIERYLKKHPEKQKINFNGEQMFDVKEAIDTKDSQTDSKLFEYFKDKAFPYLSTKHLGVFPDHVIDMFINGYRLSLTNHGPTPVKRGTKDPRGGIFDAVFTRGDQSKLLTSRHDFKEKTLNEISDLIKQELQEGKALGLSHTYANVRINHVINLWGADFDSEGNLEAIYVTDSDSNASIGMKKYYVGVNSAGKVAISAKEIEDDNIGAQVLGLFTLSTGKDIWEQTNLEHHHHHH
B12: PRT-254 (protein)
chain: MVTSVWTKGVTPPTNFTYGEDVLHAPYVANQGWYDITKTFNGKDDLLCGAATAGNMLHWWFDQNKEQIENYLKKHPEKQKINFNGEQMFDVKEAIDTKDSQLDSKLFEYFLEKAFPNLSTKHLGVFPDHVIDMFINGYRLSLLNHGPTPVKRGSKDPRGGIFDAVFTRGDQSKLLTNRHDFKEKTLKEISDLIKQELTEGKALGISHTYANVRINHVINLWGADFDAEGNLEAIYVTDSDSNKSIGMKKYPVGVNSNGKVAISAKEIEEDNIGAQVLGLFTLSTGQDIWNQTN
B13: PRT-255 (protein)
chain: MVTSVWTKGVTPPTNFTYGEDVLHAPYVANQGWYDITKTFNGKDDLLCGAATAGNMLHWWFDQNKEQIENYLKKHPEKQKINFNGEQMFDVKEAIDTKDSQLDSKLFEYFLEKAFPNLSTKHLGVFPDHVIDMFINGYRLSLLNHGPTPVKRGSKDPRGGIFDAVFTRGDQSKLLTNRHDFKEKTLKEISDLIKQELTEGKALGISHTYANVGINHVINLWGADFDAEGNLEAIAVTDSDSNASIGMKKYFVGVNSSGKVAISAKEIEEDNIGAQVLGLFTLSTGQDIWNQTN
B14: PRT-262 (protein)
chain: MVTSVWTKGVTPPTNFTYGEDVLHAPYVANQGWYDITKTFNGKDNLLCGAATAGNMLHWWFDQNKEQIENYLKKHPEKQKINFNGEQLFDVKEAIDTKDSQLDSKLFEYFLEKAFPNLSTKHLGVFPDHVIDMFINGYRLSLLNHGPTPVKRGSKDKRGGIFDAVFTRGVQSKLLTNRHDFKEKTLKEISDLIKQELTEGKALGISHTYANVRINHVINLWGADFDAEGNLEAIAVTDSDTNASIGMKKYFVGVNSSGKVAISAKEIEEDNIGAQVLGLFTLSTGQDIWNQTN

Target: pooled human IgG (human IgG1, 2, 3 and 4)

Protein | Enzyme Activity Endpoint Assay: Fab′2 | Enzyme Activity Endpoint Assay: Fc | Enzyme Activity Endpoint Assay: IgG | Enzyme Activity Endpoint Assay: scIgG
B1 | 0 ng/µL | 0 ng/µL | 854 ng/µL | 3 ng/µL
B2 | 666 ng/µL | 348 ng/µL | 0 ng/µL | 221 ng/µL
B3 | 0 ng/µL | 81 ng/µL | 308 ng/µL | 279 ng/µL
B4 | 5 ng/µL | 0 ng/µL | 1160 ng/µL | 0 ng/µL
B5 | 254 ng/µL | 309 ng/µL | 94 ng/µL | 607 ng/µL
B6 | 570 ng/µL | 351 ng/µL | 16 ng/µL | 200 ng/µL
B7 | 385 ng/µL | 297 ng/µL | 65 ng/µL | 372 ng/µL
B8 | 759 ng/µL | 409 ng/µL | 0 ng/µL | 0 ng/µL
B9 | 376 ng/µL | 288 ng/µL | 100 ng/µL | 311 ng/µL
B10 | 580 ng/µL | 350 ng/µL | 36 ng/µL | 0 ng/µL
B11 | 670 ng/µL | 475 ng/µL | 0 ng/µL | 0 ng/µL
B12 | 677 ng/µL | 359 ng/µL | 0 ng/µL | 0 ng/µL
B13 | 58 ng/µL | 178 ng/µL | 75 ng/µL | 525 ng/µL
B14 | 50 ng/µL | 191 ng/µL | 289 ng/µL | 802 ng/µL
